This data set deals with Mef2c (UniProt Q06413). Particulars: NECEEM; 25 mM tetraborate pH 9.4, room temperature; koff 0.022 s-1, kon 45 M-1 s-1.

The term Kd denotes the constant that tells how readily two partners part at equilibrium. A high value points to weaker binding.

Chain of Mef2c (Q06413 whole entry): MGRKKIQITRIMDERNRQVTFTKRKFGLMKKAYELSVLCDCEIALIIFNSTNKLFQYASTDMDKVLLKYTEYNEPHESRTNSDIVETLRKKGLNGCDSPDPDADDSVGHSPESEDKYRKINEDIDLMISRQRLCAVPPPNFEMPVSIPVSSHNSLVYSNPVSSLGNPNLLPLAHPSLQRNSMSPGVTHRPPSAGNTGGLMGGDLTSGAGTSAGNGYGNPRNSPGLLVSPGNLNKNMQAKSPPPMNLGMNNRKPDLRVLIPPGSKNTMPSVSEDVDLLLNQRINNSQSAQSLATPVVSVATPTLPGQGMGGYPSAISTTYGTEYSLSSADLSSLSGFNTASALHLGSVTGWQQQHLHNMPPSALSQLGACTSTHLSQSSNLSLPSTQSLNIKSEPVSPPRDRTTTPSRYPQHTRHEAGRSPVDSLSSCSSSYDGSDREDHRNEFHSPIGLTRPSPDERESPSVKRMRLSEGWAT

Take “CCTGCCACGCTCCGCTCTAAAAATAA (double strand) [Mef2c target dsDNA 26 bp]”: the dissociation constant (Kd) was 480 µM.

For the origin of these results see patent publication US20100243450.
